Consider one molecule from US20120201751A1.

Test [1] deals with Recombinant human CD44/Fc (R&D Systems, Minneapolis) (human) (UniProt P16070). In words: SPR (Biacore T100), recombinant human CD44/Fc amine-coupled to a CM5 chip, 1:1 interaction model; column head Kd (1/s). Background: Surface plasmon resonance follows binding to a sensor surface in real time, without labels.
Test [2] shares this target. In words: SPR (Biacore T100), recombinant human CD44/Fc amine-coupled to a CM5 chip, 1:1 interaction model; column head Ka (1/Ms).
For test [3] the target is unchanged. Kind of test: SPR (Biacore T100), rhCD44/Fc amine-coupled to CM5, antibody injected 0.67-667 nM, 1:1 model.

B1: (hu)ARH460-16-2 variant HV1/KV1 (antibody, V domains shown)
VH: EVQLVESGGGLVQPGGSLRLSCAASGFDFSRYWMSWVRQAPGKGLVWVGEVNPDSTSINYTPSLKDRFTISRDNAKNTLYLQMNSLRAEDTAVYYCTRPNYYGSRYHYYAMDYWGQGTLVTVSS
VL: DIQMTQSPSSLSASVGDRVTITCRASQDINNYLNWYQQKPGKAPKLLIYYTSRLHSGVPSRFSGSGSGTDFTFTISSLQPEDIATYYCQQGSTLPFTFGQGTKLEIK
With B1, in test [1], the off-rate (koff) (commonly the first-order rate constant of dissociation) came out at 0.000225 s⁻¹. In test [2], the kon (commonly the second-order rate constant of association) was 35400 M⁻¹ s⁻¹. In addition, in test [3], the Kd – broadly, the concentration at which binding is half-saturated – was found to be 6.32 nM.
